The values below come from PMC10883266, “TTLL12 is required for primary ciliary axoneme formation in polarized epithelial cells” (EMBO Reports, 2023).

The target in test [1] is recombinant 6His-TTLL12 (human) (UniProt Q14166). The test can be described thus: pull-down; 10 μg (0.18 μM) untagged porcine brain tubulin alone or with 10 μg 6His-TTLL12 in 20 mM HEPES pH 7.4, 150 mM KCl, overnight at 4 °C to prevent polymerization; Ni beads; washes with 300 mM KCl, 0.1% Triton X-100; Coomassie blue staining.
The target in another test is T1, recombinant GST-Rab19 (UniProt A4D1S5 1-217).
T1 construct: small GTPase Rab19; loaded with GDP or GMP-PNP before the assay; Loaded with GDP or with GMP-PNP (non-hydrolyzable GTP analog); also called GST-Rab19 (GDP); GST-Rab19 (GMP-PNP); source: E. coli BL21 Codon Plus, purified as previously described (Jewett et al, 2021); not shown: GST, N-terminal, kept
T1 sequence (looked up): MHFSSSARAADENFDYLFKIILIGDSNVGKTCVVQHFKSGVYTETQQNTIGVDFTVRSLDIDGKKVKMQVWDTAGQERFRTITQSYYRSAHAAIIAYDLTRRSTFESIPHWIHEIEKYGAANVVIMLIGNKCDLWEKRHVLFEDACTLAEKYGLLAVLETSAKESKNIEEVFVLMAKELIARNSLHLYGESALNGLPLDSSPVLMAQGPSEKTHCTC
The test can be described thus: pull-down; 10 μg GST-Rab19 loaded with GDP or GMP-PNP + 10 μg 6His-TTLL12 in 20 mM HEPES pH 7.4, 150 mM NaCl, 1% BSA, 1 h room temperature; glutathione beads; washes with 300 mM NaCl, 0.1% Triton X-100; Coomassie blue staining. The conditions noted are these: both partners purified.

In the case of “untagged purified porcine brain tubulin (α/β-tubulin heterodimer) (from UniProt P02554 1-445) (complex)”, the fold increase in tubulin co-precipitation with Ni beads over tubulin alone in test [1] was 3 fold.

B1: recombinant 6His-TTLL12 (natural protein, human, UniProt Q14166 1-644, looked up)
chain: MEAERGPERRPAERSSPGQTPEEGAQALAEFAALHGPALRASGVPERYWGRLLHKLEHEVFDAGEVFGIMQVEEVEEEEDEAAREVRKQQPNPGNELCYKVIVTRESGLQAAHPNSIFLIDHAWTCRVEHARQQLQQVPGLLHRMANLMGIEFHGELPSTEAVALVLEEMWKFNQTYQLAHGTAEEKMPVWYIMDEFGSRIQHADVPSFATAPFFYMPQQVAYTLLWPLRDLDTGEEVTRDFAYGETDPLIRKCMLLPWAPTDMLDLSSCTPEPPAEHYQAILEENKEKLPLDINPVVHPHGHIFKVYTDVQQVASSLTHPRFTLTQSEADADILFNFSHFKDYRKLSQERPGVLLNQFPCENLLTVKDCLASIARRAGGPEGPPWLPRTFNLRTELPQFVSYFQQRERWGEDNHWICKPWNLARSLDTHVTKSLHSIIRHRESTPKVVSKYIESPVLFLREDVGKVKFDIRYIVLLRSVRPLRLFVYDVFWLRFSNRAFALNDLDDYEKHFTVMNYDPDVVLKQVHCEEFIPEFEKQYPEFPWTDVQAEIFRAFTELFQVACAKPPPLGLCDYPSSRAMYAVDLMLKWDNGPDGRRVMQPQILEVNFNPDCERACRYHPTFFNDVFSTLFLDQPGGCHVTCLV
notes: Tubulin Tyrosine Ligase-Like 12 (TTLL12), human cDNA (pLVX304-hTTLL12); the form rests on the printed cloning primers; also called Tubulin Tyrosine Ligase-Like 12; source: Sf9 cells (baculovirus, pFastBac HTA), purified (nickel beads, dialysed into PBS with 1 mM DTT); not shown: 6His, …
On to B1, for which the “fold increase in TTLL12 binding over a GST-only control” value in the test with recombinant GST-Rab19 was roughly 5 fold.
